Data from paper PMC4664405.

Target: Flag-tagged PDI-WT (UniProt P07237)
Test: co-IP; Flag-M2 affinity resin on COS-7 lysates (50 mM TrisHCl, 150 mM NaCl); PDI-Flag co-expressed with one sGC subunit or one α construct; Western blot, densitometry of bound over input

Sequence of Flag-tagged PDI-WT (P07237 18-508): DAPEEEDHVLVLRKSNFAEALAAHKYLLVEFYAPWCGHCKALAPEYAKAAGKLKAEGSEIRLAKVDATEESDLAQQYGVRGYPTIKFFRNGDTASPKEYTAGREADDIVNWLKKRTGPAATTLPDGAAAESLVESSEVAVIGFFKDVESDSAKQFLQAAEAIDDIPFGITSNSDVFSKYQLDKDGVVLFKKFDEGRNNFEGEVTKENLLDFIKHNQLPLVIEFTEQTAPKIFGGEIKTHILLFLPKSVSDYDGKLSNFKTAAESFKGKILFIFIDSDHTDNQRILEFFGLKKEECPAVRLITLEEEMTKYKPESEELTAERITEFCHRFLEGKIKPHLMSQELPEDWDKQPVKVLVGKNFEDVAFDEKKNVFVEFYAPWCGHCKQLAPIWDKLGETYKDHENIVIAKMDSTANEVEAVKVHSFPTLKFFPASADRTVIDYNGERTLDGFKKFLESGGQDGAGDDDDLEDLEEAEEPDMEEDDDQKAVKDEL

Row | bound vs. input (densitometry) | sGC bound over input (densitometry) | Substance
1 | 1.01 | 1.08 | sGC α WT, expressed in COS-7 cells (from UniProt Q02108 1-690) (enzyme)
2 | – | 0.74 | sGC β WT, expressed in COS-7 cells (from UniProt Q02153 1-619) (enzyme)
